Target: T1, recombinant human C1r2s2 tetramer (human, UniProt P09871 16-688; P00736 18-705)
T1 construct: Heterotetramer of two C1r and two C1s chains, co-expressed in FreeStyle293-F cells; also called human C1r2s2s
T1 chain 1: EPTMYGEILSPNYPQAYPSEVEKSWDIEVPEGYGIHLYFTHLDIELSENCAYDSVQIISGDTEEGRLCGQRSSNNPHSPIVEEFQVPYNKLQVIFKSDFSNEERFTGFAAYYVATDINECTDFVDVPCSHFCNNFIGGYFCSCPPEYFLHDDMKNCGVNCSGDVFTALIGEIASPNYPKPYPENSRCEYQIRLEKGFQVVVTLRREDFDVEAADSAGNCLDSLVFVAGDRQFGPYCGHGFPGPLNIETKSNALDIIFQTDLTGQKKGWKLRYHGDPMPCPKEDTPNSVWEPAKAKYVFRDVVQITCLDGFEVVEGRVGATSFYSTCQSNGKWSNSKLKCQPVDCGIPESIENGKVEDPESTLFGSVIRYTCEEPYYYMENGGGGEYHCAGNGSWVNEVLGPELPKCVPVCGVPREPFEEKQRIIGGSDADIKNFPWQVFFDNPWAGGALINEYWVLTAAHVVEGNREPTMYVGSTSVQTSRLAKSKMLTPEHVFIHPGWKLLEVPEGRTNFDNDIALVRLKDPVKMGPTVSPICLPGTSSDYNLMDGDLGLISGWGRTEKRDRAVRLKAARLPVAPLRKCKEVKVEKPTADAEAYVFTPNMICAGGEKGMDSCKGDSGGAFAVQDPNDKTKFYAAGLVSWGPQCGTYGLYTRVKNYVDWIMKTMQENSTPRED
T1 chain 2: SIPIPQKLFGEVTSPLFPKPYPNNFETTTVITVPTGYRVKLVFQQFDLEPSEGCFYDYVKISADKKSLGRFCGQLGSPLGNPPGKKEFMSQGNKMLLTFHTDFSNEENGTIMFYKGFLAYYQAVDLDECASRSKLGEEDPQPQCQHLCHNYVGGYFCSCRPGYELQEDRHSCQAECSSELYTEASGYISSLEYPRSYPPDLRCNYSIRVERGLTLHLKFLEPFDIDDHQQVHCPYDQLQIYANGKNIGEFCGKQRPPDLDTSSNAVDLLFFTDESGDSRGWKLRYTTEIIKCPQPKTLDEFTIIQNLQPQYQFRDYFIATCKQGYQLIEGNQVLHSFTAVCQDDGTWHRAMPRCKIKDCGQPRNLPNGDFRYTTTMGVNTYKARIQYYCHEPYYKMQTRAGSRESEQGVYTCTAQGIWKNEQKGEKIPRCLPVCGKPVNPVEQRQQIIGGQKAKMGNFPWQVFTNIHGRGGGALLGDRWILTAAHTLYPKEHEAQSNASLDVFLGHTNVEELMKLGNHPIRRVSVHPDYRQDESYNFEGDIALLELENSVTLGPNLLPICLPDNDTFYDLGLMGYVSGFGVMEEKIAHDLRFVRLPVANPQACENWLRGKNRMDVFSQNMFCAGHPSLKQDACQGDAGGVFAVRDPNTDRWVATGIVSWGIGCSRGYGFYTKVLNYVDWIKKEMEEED
Experiment: SPR (Biacore), antibody captured on ProA/G, antigen as analyte, 37 C, pH7.4, 1.2 mM CaCl2; pH 7.4
Description: The kinetic parameters of anti-C1s antibodies against recombinant human C1s (as described in PCT/JP2018/042054), human C1r2s2, and cyno C1r2s2 His/Flag (also referred as cyno C1r2s2 in the Table and Figures) were assessed at pH7.4 and pH5.8, at 37 degrees C. using BIACORE (registered trademark) T200 instrument (GE Healthcare) or BIACORE 4000 (GE Healthcare). ProAG (Pierce) was immobilized onto a CM4 sensorchip using amine coupling kit (GE Healthcare) according to the recommended settings by GE Healthcare. Antibodies and analytes were diluted into the respective running buffers, ACES pH7.4 and pH5.8 (20 mM ACES, 150 mM NaCl, 1.2 mM CaCl₂, 1 mg/ml BSA, 1 mg/ml CMD, 0.05% Tween 20, 0.005 w/v % NaN₃). Each antibody was captured onto the sensor surface by ProA/G. Antibody capture levels were typically 100-200 resonance units (RU). Then, recombinant C1s was injected at concentrations of 25 and 50 nM followed by dissociation at pH7.4 and pH5.8. The surface was regenerated using 10 mM Glycine-HCl, pH1.5. Kinetic parameters at neutral pH conditions and acidic conditions were determined by fitting the sensorgrams with 1:1 binding model using BIACORE (registered trademark) T200 Evaluation software, version 2.0 (GE Healthcare) or BIACORE 4000 Evaluation software. The dissociation rate at pH5.8 (after dissociation at pH7.4, indicated as pH5.8* in TABLE 2) was determined by processing and fitting data using Scrubber 2.0 (BioLogic Software) curve fitting software. The association rate (ka), dissociation rate (kd), binding affinity (KD) at pH7.4 and pH5.8 condition, and dissociation rate (kd) at pH5.8* condition of the antibodies are listed in TABLE 2. Some kinetic parameters of COS0098pHv1 in acidic condition were not correctly calculated because of its weak binding response.
Also, to observe the cross-reactivity of anti-C1s antibodies against human C1r2s2 and cyno C1r2s2 (cyno C1r2s2 His/Flag), BIACORE (registered trademark) kinetics analysis was performed.

- Kd: 0.213 nM
- koff: 0.0002 s⁻¹
- kon: 936000 M⁻¹ s⁻¹
B1: COS0098bb (antibody, V domains shown)
VH: QSVEESGGRLVTPGTPLTLTCTVSGFSLTKYTVSWVRQAPGKGLEWIGIINTGGSAYYATWAKGRFTFSKTSTTVDLQITSPTTEDTATYFCARGNGDTDYTNLWGPGTLVTVSS
VL: QVLTQTPSSVSEPVGGTVTINCQASENIYSALAWYQQKPGQPPKLLIYGASNLESGVPSRFKGSGSGTQFTLTISDLECADAATYYCQQYYFTSSTFGGGTKVEIK
notes: Anti-C1s rabbit antibody, parent of COS0098pHv1; the antibody was captured by ProA/G; also called anti-C1s antibody COS0098bb
